Measured values from US12116636B2, “Methods for evaluating tumor cell spheroids using 3D microfluidic cell culture device” (Dana-Farber Cancer Institute, Inc., priority 2017, dated 2024).

Test system: MC38 MDOTS
Experiment: RNA-seq of MDOTS after ex vivo treatment
Format: cell-based, murine
Settings: Day 6
Source text: RNA is collected from a subset of the MDOTs within the device after the supernatants have been collected and cDNA libraries for RNA sequencing is generated to evaluate global transcriptome changes associated with treatment regimen on single samples per drug treatment. These types of data may be generated from a variety of clinical specimens. The RNA Advance tissue RNA isolation method (Beckman Coulter) is utilized, which is a bead wash based separation technique, which facilitates elution volumes amenable to sample input for RNA-Seq library preparation. Automated library preparation can be performed using as little as 10 ng of good quality RNA. The RNA Access method from Illumina is utilized, which enriches for the coding region of the genome. Libraries are sequenced on the NextSeq500 platform, as 75 bp Single End to generate approximately 20 million reads per sample. With appropriate adaptors, 24 samples are multiplexed on each NextSeq500 run. The concentration [ng/ul], yield [ng] and quality of RNA (high RIN #by bioanalyzer) derived from the MDOTS are more than sufficient to ensure good quality libraries for subsequent sequencing (FIG. 15).
The STAR RNA sequencing alignment tool (Spliced Transcripts Alignment to a Reference) [STAR_2.5.0a]) is utilized to align the data to the genome (RefSeq gene annotations). […]

B1: IFNγ: interferon gamma used as MC38 MDOTS treatment in RNA-seq (protein, UniProt P01580 23-155, looked up)
Interferon gamma: HGTVIESLESLNNYFNSSGIDVEEKSLFLDIWRNWQKDGDMKILQSQIISFYLRLFEVLKDNQAISNNISVIESHLITTFFSNSKAKKDAFMSIAKFEVNNPQVQRQAFNELIRVVHQLLPESSLRKRKRSRC
- expression of IFNγ genes incl. CXCL10, CXCL11, PD-L1, IDO1, IDO2 (RNA-seq) in MC38 MDOTS: induced
